# In PMC2997466, “The unstructured C-terminal extension of UvrD interacts with UvrB, but is dispensable for nucleotide excision repair” (DNA Repair, 2009):
# B1: α-UvrD 1–280 (1a1b1a) fusion protein (domain or fragment, E. coli, UniProt P03018 1-280, looked up)
# chain: MDVSYLLDSLNDKQREAVAAPRSNLLVLAGAGSGKTRVLVHRIAWLMSVENCSPYSIMAVTFTNKAAAEMRHRIGQLMGTSQGGMWVGTFHGLAHRLLRAHHMDANLPQDFQILDSEDQLRLLKRLIKAMNLDEKQWPPRQAMWYINSQKDEGLRPHHIQSYGNPVEQTWQKVYQAYQEACDRAGLVDFAELLLRAHELWLNKPHILQHYRERFTNILVDEFQDTNNIQYAWIRLLAGDTGKVMIVGDDDQSIYGWRGAQVENIQRFLNDFPGAETIRLE
# notes: UvrD (helicase II), E. coli, residues 1-280 (domains 1a and 1b); also called N-terminal fragment of UvrD; UvrD domains 1a and 1b; source: bacterial two-hybrid fusion, pRA02 derivative, in E. coli KS1; not shown: RNA polymerase α subunit residues 1–248, N-terminal, kept
# B2: α-UvrD 645–720 (C-extension) fusion protein (domain or fragment, E. coli, UniProt P03018 645-720, looked up)
# chain: RLRATVSRPVSHQRMGTPMVENDSGYKLGQRVRHAKFGEGTIVNMEGSGEHSRLQVAFQGQGIKWLVAAYARLESV
# notes: UvrD (helicase II), E. coli, residues 645-720 (unstructured C-terminal extension); also called C-terminal extension of UvrD (residues 645–720); source: bacterial two-hybrid fusion, pRA02 derivative, in E. coli KS1; not shown: RNA polymerase α subunit residues 1–248, N-terminal, kept
# B3: UvrB, N-terminally hexa-His-tagged (natural protein, E. coli, UniProt P0A8F8 1-673, looked up)
# chain: MSKPFKLNSAFKPSGDQPEAIRRLEEGLEDGLAHQTLLGVTGSGKTFTIANVIADLQRPTMVLAPNKTLAAQLYGEMKEFFPENAVEYFVSYYDYYQPEAYVPSSDTFIEKDASVNEHIEQMRLSATKAMLERRDVVVVASVSAIYGLGDPDLYLKMMLHLTVGMIIDQRAILRRLAELQYARNDQAFQRGTFRVRGEVIDIFPAESDDIALRVELFDEEVERLSLFDPLTGQIVSTIPRFTIYPKTHYVTPRERIVQAMEEIKEELAARRKVLLENNKLLEEQRLTQRTQFDLEMMNELGYCSGIENYSRFLSGRGPGEPPPTLFDYLPADGLLVVDESHVTIPQIGGMYRGDRARKETLVEYGFRLPSALDNRPLKFEEFEALAPQTIYVSATPGNYELEKSGGDVVDQVVRPTGLLDPIIEVRPVATQVDDLLSEIRQRAAINERVLVTTLTKRMAEDLTEYLEEHGERVRYLHSDIDTVERMEIIRDLRLGEFDVLVGINLLREGLDMPEVSLVAILDADKEGFLRSERSLIQTIGRAARNVNGKAILYGDKITPSMAKAIGETERRREKQQKYNEEHGITPQGLNKKVVDILALGQNIAKTKAKGRGKSRPIVEPDNVPMDMSPKALQQKIHELEGLMMQHAQNLEFEEAAQIRDQLHQLRELFIAAS
# notes: UvrB, E. coli MG1655, whole coding region from start to stop codon (673 residues); also called full-length UvrB; source: E. coli XL1-Blue, pQE30UvrB, purified (Ni HiTrap chelating column)
# B4: UvrB_(1–414), N-terminally His-tagged (domain or fragment, E. coli, UniProt P0A8F8 1-414, looked up)
# chain: MSKPFKLNSAFKPSGDQPEAIRRLEEGLEDGLAHQTLLGVTGSGKTFTIANVIADLQRPTMVLAPNKTLAAQLYGEMKEFFPENAVEYFVSYYDYYQPEAYVPSSDTFIEKDASVNEHIEQMRLSATKAMLERRDVVVVASVSAIYGLGDPDLYLKMMLHLTVGMIIDQRAILRRLAELQYARNDQAFQRGTFRVRGEVIDIFPAESDDIALRVELFDEEVERLSLFDPLTGQIVSTIPRFTIYPKTHYVTPRERIVQAMEEIKEELAARRKVLLENNKLLEEQRLTQRTQFDLEMMNELGYCSGIENYSRFLSGRGPGEPPPTLFDYLPADGLLVVDESHVTIPQIGGMYRGDRARKETLVEYGFRLPSALDNRPLKFEEFEALAPQTIYVSATPGNYELEKSGGDVVDQVVR
# notes: also called truncated derivative of UvrB comprising domains 1a, 2 and 1b
# Legend:
# [1] = test system: UvrD (helicase II) (Escherichia coli MG1655); experiment: DNA-dependent ATPase, poly(dT) titration (KDNA, half-maximal activity); settings: NER complex: 40 mM HEPES pH 8.0, 100 mM KCl, 8 mM MgCl2, 5 mM DTT, 100 ug/ml BSA, 11% glycerol, 2 mM ATP with regeneration system, 37 C; ATPase assay …
# [2] = test system: UvrD1-647 (Escherichia coli MG1655); experiment: as above; settings: NER complex: 40 mM HEPES pH 8.0, 100 mM KCl, 8 mM MgCl2, 5 mM DTT, 100 ug/ml BSA, 11% glycerol, 2 mM ATP with regeneration system, 37 C; ATPase assay …
# [3] = biological target: T1, λ cI-UvrB 251–547 (1b3) fusion protein (E. coli, UniProt P0A8F8 251-547); experiment: two-hybrid; bacterial 2-hybrid (Dove and Hochschild) in E. coli KS1: UvrD fragments fused to RNA polymerase α 1–248, UvrB fragments fused to λ cI 1–236; chromosomal lacZ reporter, β-galactosidase in Miller Units; LB with 1 mM IPTG, 30 °C, mid-log phase; settings: partners not purified
# T1 construct: UvrB, E. coli, residues 251-547 (domains 1b and 3); also called UvrB domains 1b and 3; source: bacterial two-hybrid fusion, pRA03 derivative, in E. coli KS1; not shown: λ cI residues 1–236, N-terminal, kept
# T1 sequence (looked up): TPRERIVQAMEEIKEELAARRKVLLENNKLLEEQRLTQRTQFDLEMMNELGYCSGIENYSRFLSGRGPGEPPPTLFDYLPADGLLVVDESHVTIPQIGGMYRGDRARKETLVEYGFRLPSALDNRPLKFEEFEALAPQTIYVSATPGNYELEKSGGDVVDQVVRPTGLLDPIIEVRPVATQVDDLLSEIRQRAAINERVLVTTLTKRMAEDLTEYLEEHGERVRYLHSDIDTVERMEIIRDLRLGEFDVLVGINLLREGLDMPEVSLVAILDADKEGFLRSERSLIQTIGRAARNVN
# [4] = biological target: T2, λ cI-UvrB 35–252 (1a2) fusion protein (E. coli, UniProt P0A8F8 35-252); experiment: as above; settings: partners not purified
# T2 construct: UvrB, E. coli, residues 35-252 (domains 1a and 2); also called UvrB fragment containing domains 1a and 2; source: bacterial two-hybrid fusion, pRA03 derivative, in E. coli KS1; not shown: λ cI residues 1–236, N-terminal, kept
# T2 sequence (looked up): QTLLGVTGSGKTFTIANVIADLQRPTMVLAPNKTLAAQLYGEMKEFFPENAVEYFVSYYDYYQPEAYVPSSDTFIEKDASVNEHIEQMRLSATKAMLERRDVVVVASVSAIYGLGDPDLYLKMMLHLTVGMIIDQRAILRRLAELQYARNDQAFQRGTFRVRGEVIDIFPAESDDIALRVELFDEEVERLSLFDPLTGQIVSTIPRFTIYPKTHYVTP
# [5] = biological target: T3, λ cI-UvrB 527–673 (4) fusion protein (E. coli, UniProt P0A8F8 527-673); experiment: as above; settings: partners not purified
# T3 construct: UvrB, E. coli, residues 527-673 (domain 4); also called UvrB domain 4; source: bacterial two-hybrid fusion, pRA03 derivative, in E. coli KS1; not shown: λ cI residues 1–236, N-terminal, kept
# T3 sequence (looked up): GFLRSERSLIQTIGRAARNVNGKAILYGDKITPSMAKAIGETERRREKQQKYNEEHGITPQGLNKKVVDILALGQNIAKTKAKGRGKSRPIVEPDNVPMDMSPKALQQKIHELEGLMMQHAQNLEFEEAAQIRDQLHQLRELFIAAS
# [6] = biological target: T4, UvrD (helicase II), native untagged (E. coli, UniProt P03018 1-720); experiment: SPR; BIAcore 2000; UvrB or UvrB_(1–414) immobilised on CM5 chip by amine coupling (~8000 RU); UvrD or UvrD_(1–647) injected at 0.05-4.0 μM, 20 μl/min, 25 °C; 10 mM HEPES pH 7.4, 150 mM NaCl, 3 mM EDTA, 0.005% Tween20; settings: both partners purified
# T4 construct: UvrD (helicase II), E. coli MG1655, whole coding region from start to stop codon (720 residues); also called full-length UvrD; wild-type UvrD; source: E. coli BL21(DE3), pETDUET-UvrD, purified (heparin, MonoQ)
# T4 sequence (looked up): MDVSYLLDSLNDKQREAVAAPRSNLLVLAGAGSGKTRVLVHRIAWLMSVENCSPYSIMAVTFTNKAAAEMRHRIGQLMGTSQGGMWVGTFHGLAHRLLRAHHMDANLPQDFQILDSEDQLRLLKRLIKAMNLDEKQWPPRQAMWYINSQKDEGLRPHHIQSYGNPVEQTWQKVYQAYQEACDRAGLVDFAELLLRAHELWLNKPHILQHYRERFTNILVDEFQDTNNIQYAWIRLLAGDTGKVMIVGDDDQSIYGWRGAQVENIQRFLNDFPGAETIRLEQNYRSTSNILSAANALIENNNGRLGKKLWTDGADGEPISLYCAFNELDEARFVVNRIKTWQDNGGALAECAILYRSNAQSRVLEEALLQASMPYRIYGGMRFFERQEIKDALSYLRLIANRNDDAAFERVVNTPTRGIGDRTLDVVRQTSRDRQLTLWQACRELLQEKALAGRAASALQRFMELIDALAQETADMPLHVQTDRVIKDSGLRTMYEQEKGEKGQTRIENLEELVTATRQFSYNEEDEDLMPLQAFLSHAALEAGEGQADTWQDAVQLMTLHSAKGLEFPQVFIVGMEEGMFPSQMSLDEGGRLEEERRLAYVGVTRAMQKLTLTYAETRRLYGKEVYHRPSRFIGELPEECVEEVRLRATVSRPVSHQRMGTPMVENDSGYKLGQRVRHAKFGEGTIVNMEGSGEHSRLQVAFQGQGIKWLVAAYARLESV
# [7] = biological target: T5, ^bioUvrD, full-length UvrD biotinylated at the N-terminus (E. coli, UniProt P03018 1-720, biotin on the lysine of the N-terminal tag … (biotinylated in vivo by BirA)); experiment: SPR; BIAcore 2000; ^bioUvrD or ^bioUvrD_(1–647) immobilised on streptavidin (SA) chip (~7000 RU); UvrB or UvrB_(1–414) injected at 0.05-4.0 μM, 20 μl/min, 25 °C; 10 mM HEPES pH 7.4, 150 mM NaCl, 3 mM EDTA, 0.005% Tween20; settings: both partners purified
# T5 construct: UvrD (helicase II), E. coli MG1655, whole coding region (720 residues); The tag was inserted at the NcoI site that overlaps the start codon of uvrD; also called biotinylated UvrD; source: E. coli BL21(DE3) with pBirACm and pET28a-^bioUvrD, purified (ammonium sulphate, Softlink Avidin, HiTrap heparin)
# T5 sequence (looked up): T4 sequence (looked up)
Molecule,β-galactosidase activity [4] [Miller Units],binding result [6],binding result [7],further results
poly(dT),,,,K half (uM nucleotides) [1]: 0.54; K half (uM nucleotides) [2]: 2.5
B1,111,,,β-galactosidase activity [3]: 336 Miller Units; β-galactosidase activity [5]: 86 Miller Units
B2,140,,,
B3,,binds,binds,
B4,,binds,binds,
